Data from publication PMC8096239, “Nse5/6 is a negative regulator of the ATPase activity of the Smc5/6 complex”.

Legend:
Nse5/6 = target: T1, Nse5/6 (Saccharomyces cerevisiae, UniProt Q03718;P40026 1-556;1-464); assay: EMSA; more extensive concentration range; EMSA: 200 nM hairpin, 20 mM HEPES-NaOH pH 7.5, 150 mM NaCl, 0.5 mM TCEP, 30 min at 4 C; 0.8% TBE-agarose gel, 50 V, 3 h, 4 C; settings: protein: recombinant, tags: Nse5-C.tag (GAAEPEA), HIS-3C-Nse6, copies: 1;1, label: fluorescein on position 5 of thymine, 6-carbon spacer, 48 bp stem, 4 nt loop AATA, blunt end
T1 sequence 1: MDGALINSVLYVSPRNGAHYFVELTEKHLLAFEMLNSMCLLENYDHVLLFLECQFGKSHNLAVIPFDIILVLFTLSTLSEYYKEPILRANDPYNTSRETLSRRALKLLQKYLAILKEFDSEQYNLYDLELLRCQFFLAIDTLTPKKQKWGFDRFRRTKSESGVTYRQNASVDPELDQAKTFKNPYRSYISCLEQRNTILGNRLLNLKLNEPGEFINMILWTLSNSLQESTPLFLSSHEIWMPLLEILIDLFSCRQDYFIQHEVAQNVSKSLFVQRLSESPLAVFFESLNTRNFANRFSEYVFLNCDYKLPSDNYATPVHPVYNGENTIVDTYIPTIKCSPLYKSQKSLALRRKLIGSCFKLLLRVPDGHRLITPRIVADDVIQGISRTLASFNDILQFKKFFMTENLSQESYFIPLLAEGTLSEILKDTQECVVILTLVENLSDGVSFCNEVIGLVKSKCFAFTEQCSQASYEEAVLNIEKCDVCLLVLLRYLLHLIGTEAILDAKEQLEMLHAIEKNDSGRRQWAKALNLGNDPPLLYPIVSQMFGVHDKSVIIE
T1 sequence 2: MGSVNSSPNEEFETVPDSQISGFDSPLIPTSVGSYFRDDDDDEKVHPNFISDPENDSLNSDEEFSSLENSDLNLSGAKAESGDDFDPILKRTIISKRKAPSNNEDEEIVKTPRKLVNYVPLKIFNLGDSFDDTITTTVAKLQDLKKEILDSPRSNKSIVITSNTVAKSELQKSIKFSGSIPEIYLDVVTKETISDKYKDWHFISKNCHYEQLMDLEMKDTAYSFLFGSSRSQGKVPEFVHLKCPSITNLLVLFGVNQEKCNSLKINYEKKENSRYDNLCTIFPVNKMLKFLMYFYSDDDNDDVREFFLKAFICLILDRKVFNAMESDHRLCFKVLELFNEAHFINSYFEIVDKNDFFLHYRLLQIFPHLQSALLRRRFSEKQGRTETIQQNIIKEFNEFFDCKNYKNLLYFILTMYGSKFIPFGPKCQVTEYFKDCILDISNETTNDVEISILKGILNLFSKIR

[1] = target: Smc5/6 holo-complex (S5-S6-N2/N1-N3-N4) (Saccharomyces cerevisiae, UniProt Q08204;Q12749;P38632;Q07913;Q05541;P43124 1-1093;1-1114;1-267;1-336;1-303;1-402); assay: EMSA; Hill slope 3.5; 200 nM DNA; two shifted species; 3 repeats; EMSA: 200 nM hairpin, 20 mM HEPES-NaOH pH 7.5, 150 mM NaCl, 0.5 mM TCEP, 30 min at 4 C; 0.8% TBE-agarose gel, 50 V, 3 h, 4 C; settings: protein: recombinant, tags: Smc5-FLAG, Smc6-AVI-HIS, HA-Nse2, HIS-TEV-Nse1, Nse3 untagged, Nse4-HALO-Myc, copies: 1;1;1;1;1;1, label: fluorescein on position 5 of thymine, 6-carbon spacer, 48 bp stem, 4 nt loop AATA, blunt end
[2] = target: Smc5/6 core complex (S5-S6-N2) (Saccharomyces cerevisiae, UniProt Q08204;Q12749;P38632 1-1093;1-1114;1-267); assay: EMSA; some aggregated material in wells at high concentration; EMSA: 200 nM hairpin, 20 mM HEPES-NaOH pH 7.5, 150 mM NaCl, 0.5 mM TCEP, 30 min at 4 C; 0.8% TBE-agarose gel, 50 V, 3 h, 4 C; settings: protein: recombinant, tags: Smc5-FLAG, Smc6-AVI-HIS, HA-Nse2, copies: 1;1;1, label: fluorescein on position 5 of thymine, 6-carbon spacer, 48 bp stem, 4 nt loop AATA, blunt end
Smc5/6 core complex (S5-S6-N2), sequence (Q08204 whole entry, chain 1 of 3): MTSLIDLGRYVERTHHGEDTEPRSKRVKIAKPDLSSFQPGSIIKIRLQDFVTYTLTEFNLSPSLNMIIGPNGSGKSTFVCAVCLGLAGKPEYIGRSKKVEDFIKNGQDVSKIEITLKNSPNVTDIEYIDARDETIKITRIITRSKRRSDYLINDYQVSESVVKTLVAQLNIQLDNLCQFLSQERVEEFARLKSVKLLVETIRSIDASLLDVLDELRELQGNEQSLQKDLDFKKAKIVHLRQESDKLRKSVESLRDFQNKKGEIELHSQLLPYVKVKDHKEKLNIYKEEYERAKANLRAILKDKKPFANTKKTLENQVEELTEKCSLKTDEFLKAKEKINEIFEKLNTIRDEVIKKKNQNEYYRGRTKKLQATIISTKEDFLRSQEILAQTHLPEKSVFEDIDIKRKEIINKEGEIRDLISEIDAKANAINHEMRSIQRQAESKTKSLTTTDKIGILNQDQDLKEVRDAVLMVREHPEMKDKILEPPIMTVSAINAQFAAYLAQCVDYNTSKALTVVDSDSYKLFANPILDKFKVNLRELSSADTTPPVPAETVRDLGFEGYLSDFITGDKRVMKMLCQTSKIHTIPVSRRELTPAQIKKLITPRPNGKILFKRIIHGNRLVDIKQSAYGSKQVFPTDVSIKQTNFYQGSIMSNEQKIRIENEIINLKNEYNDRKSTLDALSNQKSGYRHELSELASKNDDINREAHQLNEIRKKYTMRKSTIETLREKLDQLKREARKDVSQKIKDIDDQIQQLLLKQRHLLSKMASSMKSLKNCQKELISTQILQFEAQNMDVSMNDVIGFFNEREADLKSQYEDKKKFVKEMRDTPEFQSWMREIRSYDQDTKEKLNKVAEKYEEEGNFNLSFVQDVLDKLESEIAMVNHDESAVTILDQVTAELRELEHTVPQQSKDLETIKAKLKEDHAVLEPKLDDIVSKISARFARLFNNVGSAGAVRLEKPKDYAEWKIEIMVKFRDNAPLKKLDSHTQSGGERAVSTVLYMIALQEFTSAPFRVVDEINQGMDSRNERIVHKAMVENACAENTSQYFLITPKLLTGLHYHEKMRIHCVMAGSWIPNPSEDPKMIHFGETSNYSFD
Smc5/6 core complex (S5-S6-N2), sequence (Q12749 whole entry, chain 2 of 3): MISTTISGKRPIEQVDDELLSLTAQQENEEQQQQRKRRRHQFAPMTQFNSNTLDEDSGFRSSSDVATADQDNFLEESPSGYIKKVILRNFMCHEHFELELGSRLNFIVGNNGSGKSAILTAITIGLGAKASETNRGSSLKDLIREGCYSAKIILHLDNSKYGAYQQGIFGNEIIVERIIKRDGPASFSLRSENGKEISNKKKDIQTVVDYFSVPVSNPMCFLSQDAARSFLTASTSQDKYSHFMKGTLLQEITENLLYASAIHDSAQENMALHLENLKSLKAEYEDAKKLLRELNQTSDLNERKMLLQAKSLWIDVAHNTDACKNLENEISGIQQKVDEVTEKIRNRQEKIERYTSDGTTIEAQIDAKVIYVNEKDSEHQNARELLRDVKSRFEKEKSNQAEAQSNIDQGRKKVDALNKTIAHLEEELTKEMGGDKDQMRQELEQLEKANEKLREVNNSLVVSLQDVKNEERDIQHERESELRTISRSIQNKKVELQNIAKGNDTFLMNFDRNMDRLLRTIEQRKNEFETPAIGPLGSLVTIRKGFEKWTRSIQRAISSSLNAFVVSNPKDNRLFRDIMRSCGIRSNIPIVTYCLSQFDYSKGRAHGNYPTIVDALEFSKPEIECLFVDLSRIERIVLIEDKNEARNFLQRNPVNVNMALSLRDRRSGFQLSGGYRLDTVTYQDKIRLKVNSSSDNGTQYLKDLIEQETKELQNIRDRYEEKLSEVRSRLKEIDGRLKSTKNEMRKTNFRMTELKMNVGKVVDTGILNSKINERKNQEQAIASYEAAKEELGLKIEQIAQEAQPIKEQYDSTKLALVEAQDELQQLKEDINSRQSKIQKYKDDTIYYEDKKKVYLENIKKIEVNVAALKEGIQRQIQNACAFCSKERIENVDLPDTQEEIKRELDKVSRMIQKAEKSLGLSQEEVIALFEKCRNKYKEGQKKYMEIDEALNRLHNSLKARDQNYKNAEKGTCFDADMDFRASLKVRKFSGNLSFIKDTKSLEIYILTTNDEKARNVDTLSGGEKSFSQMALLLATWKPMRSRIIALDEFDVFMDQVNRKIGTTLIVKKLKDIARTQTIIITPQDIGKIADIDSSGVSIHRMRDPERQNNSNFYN
Smc5/6 core complex (S5-S6-N2), sequence (P38632 whole entry, chain 3 of 3): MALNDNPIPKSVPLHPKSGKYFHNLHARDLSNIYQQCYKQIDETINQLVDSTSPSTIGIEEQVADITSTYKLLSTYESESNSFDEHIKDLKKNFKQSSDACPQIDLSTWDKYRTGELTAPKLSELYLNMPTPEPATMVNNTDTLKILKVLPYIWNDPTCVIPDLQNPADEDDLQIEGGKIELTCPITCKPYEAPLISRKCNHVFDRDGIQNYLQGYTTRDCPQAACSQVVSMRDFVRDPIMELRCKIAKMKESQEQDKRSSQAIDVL

B1: oligonucleotide C, self-annealed dsDNA hairpin (structured_DNA)
DNA: ATCAGTACTTGTCAACACGAGCAGCCCGTATATTCTCCTACAGCACTAAATATAGTGCTGTAGGAGAATATACGGGCTGCTCGTGTTGACAAGTACTGAT
modifications: internal fluorescein-dT (iFT), between S3 and S4 (position 51, in loop)
binding result (Nse5/6): no binding
Kd [1]: ~220 nM
binding result [2]: no binding
